Measurements: US20220135638A1 (Takeda / Millennium, published 2022)
Numbered stars: 1 amine (or outer) side, 2 acyl side, 3 side chain; on linkers, the order of the positions; unused ones are H or OH. Square brackets hold non-standard residues; d marks the D form. Side chains are listed from the residue outwards. Ends that are not written are not given here. * marks the point of attachment. C20 diacid = O=C(O)CCCCCCCCCCCCCCCCCCC(=O)*; C18 diacid = O=C(O)CCCCCCCCCCCCCCCCC(=O)*; C16 diacid = O=C(O)CCCCCCCCCCCCCCC(=O)*; γGlu = O=C(O)[C@H](CCC(=O)[*:2])N[*:1]; Iva = CC[C@](C)(N)C(=O)O; Aib = CC(C)(N)C(=O)O

B1: Compound No. 442 (peptide)
peptide: Y[Aib]EGTFISDYSIALDR[Aib]HQ[Aib]NFVNW[Iva]LAQRPK([Gly-Gly-Gly-Gly-Gly-γGlu-C18 diacid])SGAPPPS
modifications: ends and bridges not checked
B2: Compound No. 462 (peptide)
peptide: Y[Aib]EGTFISDYSIALDR[Aib]HQ[Aib]NFVNW[Iva]LAQRPSSGAPPPK([Gly-Gly-Gly-Gly-Gly-γGlu-C16 diacid])
modifications: ends and bridges not checked
B3: Compound No. 456 (peptide)
peptide: Y[Aib]EGTFISDYSIALDR[Aib]HQ[Aib]NFVNW[Iva]LAQRPSSGAPK([Gly-Gly-Gly-Gly-Gly-γGlu-C16 diacid])PS
modifications: ends and bridges not checked
B4: Compound No. 468 (peptide)
peptide: Y[Aib]EGTFISDYSIALDR[Aib]HQ[Aib]NFVNW[Iva]LAQRKSSGAPPPS
modifications: not fully specified (residue 31); ends and bridges not checked
B5: Compound No. 441 (peptide)
peptide: Y[Aib]EGTFISDYSIALDR[Aib]HQ[Aib]NFVNW[Iva]LAQRPK([Gly-Gly-Gly-Gly-Gly-γGlu-C16 diacid])SGAPPPS
modifications: ends and bridges not checked
B6: Compound No. 458 (peptide)
peptide: Y[Aib]EGTFISDYSIALDR[Aib]HQ[Aib]NFVNW[Iva]LAQRPSSGAPK([Gly-Gly-Gly-Gly-Gly-γGlu-C20 diacid])PS
modifications: ends and bridges not checked
B7: Compound No. 457 (peptide)
peptide: Y[Aib]EGTFISDYSIALDR[Aib]HQ[Aib]NFVNW[Iva]LAQRPSSGAPK([Gly-Gly-Gly-Gly-Gly-γGlu-C18 diacid])PS
modifications: ends and bridges not checked
B8: Compound No. 448 (peptide)
peptide: Y[Aib]EGTFISDYSIALDR[Aib]HQ[Aib]NFVNW[Iva]LAQRPSSK([Gly-Gly-Gly-Gly-Gly-γGlu-C18 diacid])APPPS
modifications: ends and bridges not checked
B9: Compound No. 451 (peptide)
peptide: Y[Aib]EGTFISDYSIALDR[Aib]HQ[Aib]NFVNW[Iva]LAQRPSSGK([Gly-Gly-Gly-Gly-Gly-γGlu-C18 diacid])PPPS
modifications: ends and bridges not checked
B10: Compound No. 449 (peptide)
peptide: Y[Aib]EGTFISDYSIALDR[Aib]HQ[Aib]NFVNW[Iva]LAQRPSSK([Gly-Gly-Gly-Gly-Gly-γGlu-C20 diacid])APPPS
modifications: ends and bridges not checked
B11: Compound No. 463 (peptide)
peptide: Y[Aib]EGTFISDYSIALDR[Aib]HQ[Aib]NFVNW[Iva]LAQRPSSGAPPPK([Gly-Gly-Gly-Gly-Gly-γGlu-C18 diacid])
modifications: ends and bridges not checked
B12: Compound No. 452 (peptide)
peptide: Y[Aib]EGTFISDYSIALDR[Aib]HQ[Aib]NFVNW[Iva]LAQRPSSGK([Gly-Gly-Gly-Gly-Gly-γGlu-C20 diacid])PPPS
modifications: ends and bridges not checked
B13: Compound No. 455 (peptide)
peptide: Y[Aib]EGTFISDYSIALDR[Aib]HQ[Aib]NFVNW[Iva]LAQRPSSGAK([Gly-Gly-Gly-Gly-Gly-γGlu-C20 diacid])PPS
modifications: ends and bridges not checked

Molecular target: T1, full-length human GIPR (GenBank NM_000164) with an N-terminal FLAG tag on HEK-293T cells (human), P48546
T1 chain: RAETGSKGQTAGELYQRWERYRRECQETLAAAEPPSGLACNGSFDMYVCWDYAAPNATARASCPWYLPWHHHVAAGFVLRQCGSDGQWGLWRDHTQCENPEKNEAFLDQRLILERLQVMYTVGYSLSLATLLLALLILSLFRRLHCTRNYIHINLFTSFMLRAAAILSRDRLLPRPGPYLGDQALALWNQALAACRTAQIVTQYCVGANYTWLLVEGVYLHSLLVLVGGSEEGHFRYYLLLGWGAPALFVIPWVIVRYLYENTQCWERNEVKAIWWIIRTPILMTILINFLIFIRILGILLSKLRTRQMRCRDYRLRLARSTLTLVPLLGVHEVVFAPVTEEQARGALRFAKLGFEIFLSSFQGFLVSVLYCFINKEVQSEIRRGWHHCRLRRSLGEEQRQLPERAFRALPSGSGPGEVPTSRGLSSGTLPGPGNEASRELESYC
Assay: cell-based or functional assay
B1 gave a GIP EC50(pM) of 1.01 pM. B2 was tested, and the GIP EC50(pM) was 0.35 pM. Work on B3 yielded a GIP EC50(pM) of 0.57 pM. For B4, the GIP EC50(pM) was 0.44 pM. B5 was tested, and the GIP EC50(pM) was 0.33 pM. With B6 the GIP EC50(pM) was 1.31 pM. For B7, the GIP EC50(pM) was 0.82 pM. With B8 the GIP EC50(pM) was 0.54 pM. In the case of B9, the GIP EC50(pM) is reported as 0.74 pM. B10 gave a GIP EC50(pM) of 0.65 pM. B11 gave a GIP EC50(pM) of 0.52 pM. With B12 the GIP EC50(pM) was 2.17 pM. In the case of B13, the GIP EC50(pM) is reported as 2.24 pM.

Molecular target: T2, full-length human GLP-1R (GenBank NM_002062) with an N-terminal FLAG tag on HEK-293T cells (human), P43220
T2 chain: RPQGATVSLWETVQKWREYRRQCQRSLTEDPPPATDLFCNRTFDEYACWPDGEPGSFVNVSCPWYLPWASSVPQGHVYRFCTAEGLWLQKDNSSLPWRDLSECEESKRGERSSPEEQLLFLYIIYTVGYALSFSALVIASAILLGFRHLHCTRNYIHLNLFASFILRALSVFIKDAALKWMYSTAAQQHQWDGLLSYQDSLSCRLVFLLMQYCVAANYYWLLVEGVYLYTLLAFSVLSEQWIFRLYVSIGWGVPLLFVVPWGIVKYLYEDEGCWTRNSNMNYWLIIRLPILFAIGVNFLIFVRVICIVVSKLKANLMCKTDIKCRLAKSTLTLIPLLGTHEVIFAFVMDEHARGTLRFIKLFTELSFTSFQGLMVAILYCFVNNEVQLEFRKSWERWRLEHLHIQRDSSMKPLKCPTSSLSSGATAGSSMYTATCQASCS
Assay: cell-based or functional assay
Binder B1 has a GLP EC50 greater than 1000 nM. B2 gave a GLP EC50 greater than 1000 nM. B3 was tested, and the GLP EC50 was greater than 1000 nM. With B4 the GLP EC50 was greater than 1000 nM. For B5, the GLP EC50 was greater than 1000 nM. In the case of B6, the GLP EC50 is reported as greater than 1000 nM. B7 gave a GLP EC50 greater than 1000 nM. B8 gave a GLP EC50 greater than 1000 nM. Binder B9 has a GLP EC50 greater than 1000 nM. For B10, the GLP EC50 was 912 nM. Work on B11 yielded a GLP EC50 greater than 1000 nM. B12 showed a GLP EC50 greater than 1000 nM. Work on B13 yielded a GLP EC50 greater than 1000 nM.
